T1: myc-tagged version of Necl-3 (pNecl-3-myc) (human, UniProt Q8N3J6 25-435)
T1 construct: On S2 cells in the aggregation assay; not shown: C-terminal myc-His tag of vector pcDNA3.1/myc-His
T1 sequence: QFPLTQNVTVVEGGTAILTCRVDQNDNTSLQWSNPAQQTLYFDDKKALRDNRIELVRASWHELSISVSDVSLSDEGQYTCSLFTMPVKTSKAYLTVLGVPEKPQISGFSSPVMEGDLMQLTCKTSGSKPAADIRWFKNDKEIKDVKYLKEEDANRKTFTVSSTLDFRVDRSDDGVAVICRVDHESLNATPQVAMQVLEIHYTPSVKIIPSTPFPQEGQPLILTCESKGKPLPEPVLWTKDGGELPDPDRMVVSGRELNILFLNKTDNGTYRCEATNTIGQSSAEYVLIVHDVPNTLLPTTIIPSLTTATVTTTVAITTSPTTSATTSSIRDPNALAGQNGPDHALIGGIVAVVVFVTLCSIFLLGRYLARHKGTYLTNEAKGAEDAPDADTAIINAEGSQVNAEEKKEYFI

T2: Necl-1-GFP (human Necl-1 fused to GFP at its carboxy-terminus) (human, UniProt Q8N126 25-398)
T2 construct: Expressed in S2 cells; In lysate in the western blot; also called pMT-Necl-1-GFP; not shown: GFP of vector pEGFP-N1 (BD Biosciences Clontech), C-terminal fusion
T2 sequence: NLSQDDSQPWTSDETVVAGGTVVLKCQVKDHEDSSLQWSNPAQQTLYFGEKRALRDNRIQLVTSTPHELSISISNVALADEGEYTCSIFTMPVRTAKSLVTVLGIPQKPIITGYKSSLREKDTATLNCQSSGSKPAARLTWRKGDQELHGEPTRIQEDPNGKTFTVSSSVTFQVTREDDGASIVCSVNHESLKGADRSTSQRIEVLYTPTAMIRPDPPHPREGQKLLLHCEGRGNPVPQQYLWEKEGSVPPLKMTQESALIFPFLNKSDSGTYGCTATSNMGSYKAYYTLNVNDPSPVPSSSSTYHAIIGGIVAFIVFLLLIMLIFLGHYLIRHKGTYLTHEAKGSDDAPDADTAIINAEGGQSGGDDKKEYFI

B1: Necl-2-GFP (human Necl-2 fused to GFP at its carboxy-terminus) (other)
chain: QNLFTKDVTVIEGEVATISCQVNKSDDSVIQLLNPNRQTIYFRDFRPLKDSRFQLLNFSSSELKVSLTNVSISDEGRYFCQLYTDPPQESYTTITVLVPPRNLMIDIQKDTAVEGEEIEVNCTAMASKPATTIRWFKGNTELKGKSEVEEWSDMYTVTSQLMLKVHKEDDGVPVICQVEHPAVTGNLQTQRYLEVQYKPQVHIQMTYPLQGLTREGDALELTCEAIGKPQPVMVTWVRVDDEMPQHAVLSGPNLFINNLNKTDNGTYRCEASNIVGKAHSDYMLYVYDPPTTIPPPTTTTTTTTTTTTTILTIITDSRAGEEGSIRAVDHAVIGGVVAVVVFAMLCLLIILGRYFARHKGTYFTHEAKGADDAADADTAIINAEGGQNNSEEKKEYFI
notes: Expressed in S2 cells; on cells in aggregation assays, in cell lysate in the western blot and the pull-down; also called pMT-Necl-2-GFP; not shown: GFP of vector pEGFP-N1 (BD Biosciences Clontech), C-terminal fusion
B2: Necl-4-DsRed2 (human Necl-4 fused to DsRed2) (other)
chain: QEVQTENVTVAEGGVAEITCRLHQYDGSIVVIQNPARQTLFFNGTRALKDERFQLEEFSPRRVRIRLSDARLEDEGGYFCQLYTEDTHHQIATLTVLVAPENPVVEVREQAVEGGEVELSCLVPRSRPAATLRWYRDRKELKGVSSSQENGKVWSVASTVRFRVDRKDDGGIIICEAQNQALPSGHSKQTQYVLDVQYSPTARIHASQAVVREGDTLVLTCAVTGNPRPNQIRWNRGNESLPERAEAVGETLTLPGLVSADNGTYTCEASNKHGHARALYVLVVYDPGAVVEAQTSVPYAIVGGILALLVFLIICVLVGMVWCSVRQKGSYLTHEASGLDEQGEAREAFLNGSDGHKRKEEFFI
notes: On S2 cells; also called pMT-Necl-4-DsRed2; not shown: DsRed2 (Discosoma Red) of pMT-DsRed2, C-terminal fusion
B3: Necl-4-GFP (human Necl-4 fused to GFP at its carboxy-terminus) (other)
chain: B2 chain
notes: In lysate in the western blot; also called pMT-Necl-4-GFP; not shown: GFP of vector pEGFP-N1 (via pMT-GFP), C-terminal fusion
B4: Necl-1-DsRed2 (human Necl-1 fused to DsRed2) (other)
chain: T2 sequence
notes: On S2 cells; also called pMT-Necl-1-DsRed2; not shown: DsRed2 (Discosoma Red) of vector pDsRed2-N1 (BD Biosciences Clontech), C-terminal fusion
B5: Necl-3-GFP (human Necl-3 fused to GFP at its carboxy-terminus) (other)
chain: T1 sequence
notes: Expressed in Drosophila S2 cells; on cells in the aggregation assays, in crude cell lysate in the western blot; also called pMT-Necl-3-GFP; not shown: GFP of vector pEGFP-N1 (BD Biosciences Clontech), C-terminal fusion

What all share (assay): S2 cell aggregation assay
Data set [1] has as its target T1, myc-tagged version of Necl-3 ….
Data set [2] addresses B5.
Data set [3] addresses T2, Necl-1-GFP (human Necl-1 fused to GFP …).
The target in data set [4] is B1.
Data set [5] concerns the molecule itself.

Five molecules from patent publication EP1918299A1 (UNIVERSITE DE GENEVE, dated 2008) can be followed below.

As to B1, the binding result in data set [1] is recorded as “binds”.

On to B2, for which the binding result in data set [2], in data set [3] and in data set [4] was “binds” in each case.

For the molecule B3, the binding result in data set [5] is given as “binds”.

Consider B4, for which the binding result in data set [2] is given as “binds”.

Turning to B5, the binding result in data set [5] is recorded as “binds”.
